Patent US20210025890A1 (Genentech, published 2021)
One block for each binder: values may come before it.

Legend:
[1] = target: T1, FAP-cleaved human FGF21 (human, UniProt Q9NSA1 29-199); experiment: sandwich ELISA; capture mAb9, detection mAb16
T1 construct: Made by digesting intact human FGF21 with human FAP; also called cleaved FGF21; cFGF21
T1 sequence: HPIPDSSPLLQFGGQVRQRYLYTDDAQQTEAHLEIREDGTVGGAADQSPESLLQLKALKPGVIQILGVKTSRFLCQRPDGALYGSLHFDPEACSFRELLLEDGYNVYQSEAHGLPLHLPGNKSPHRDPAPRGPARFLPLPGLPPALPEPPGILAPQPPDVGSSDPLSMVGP
Description: (§1) The absorbance values were plotted as a function of antibody concentration and the data were fitted to a three parameter equation for each antibody using Prism 6 (GraphPad Software, Inc., La Jolla, Calif.). The most consistent result was observed when antibodies mAb4 or 9 were used as the capture antibody and antibody mAb11 or mAb15 was used as the detector antibody (FIG. 2 and Table 7). Therefore, mAb8 and 16 were removed from further analysis.

[2] = target: T2, intact human FGF21 (human, UniProt Q9NSA1 29-209); experiment: sandwich ELISA; capture mAb9, detection mAb16
T2 construct: also called full-length, uncleaved FGF21; iFGF21
T2 sequence: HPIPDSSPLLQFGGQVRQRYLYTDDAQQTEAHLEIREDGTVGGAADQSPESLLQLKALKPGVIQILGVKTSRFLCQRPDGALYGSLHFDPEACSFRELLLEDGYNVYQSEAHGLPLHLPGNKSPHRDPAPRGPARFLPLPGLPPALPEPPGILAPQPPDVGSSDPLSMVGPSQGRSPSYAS
Description: as §1

[3] = target: T1, FAP-cleaved human FGF21; experiment: sandwich ELISA; capture mAb9, detection mAb11
Description: as §1

[4] = target: T2, intact human FGF21; experiment: sandwich ELISA; capture mAb9, detection mAb11
Description: as §1

[5] = target: T2, intact human FGF21; experiment: sandwich ELISA, intact human FGF21; capture mAb9, detector mAb11
[6] = target: T2, intact human FGF21; experiment: sandwich ELISA, intact human FGF21; capture mAb9, detector mAb10
Description: (§2) The absorbance values were plotted as a function of antibody concentration and the data were fitted to a three parameter equation to calculate the half maximal effective concentration (EC₅₀) values for each antibody using Prism 6 (GraphPad Software, Inc., La Jolla, Calif.) (Table 6).

[7] = target: T2, intact human FGF21; experiment: sandwich ELISA, intact human FGF21; capture mAb9, detector mAb1
[8] = target: T1, FAP-cleaved human FGF21; experiment: sandwich ELISA; capture mAb9, detection mAb15
Description: as §1

[9] = target: T2, intact human FGF21; experiment: sandwich ELISA; capture mAb9, detection mAb15
Description: as §1

[10] = target: T1, FAP-cleaved human FGF21; experiment: sandwich ELISA; EC50 on FAP-cleaved FGF21 over EC50 on intact FGF21
Description: (§3) IgG obtained from the selected 20 hybridomas identified in Example 1 were further characterized by ELISA. ELISA was performed as follows: 96 well MaxiSorp plate (439454, Nalge Nunc International; Rochester, N.Y.) was coated with 1 μg/mL of anti-FGF21 mAbs or anti-FGF21 sheep pAbs (Cat. No. RD184108100, Biovendor, Asheville, N.C.) in coating buffer (50 mM sodium carbonate, pH 9.6) overnight at 4° C. […] After washing with the Washing buffer, the plate was incubated with 0.5 μg/ml of the secondary antibody (R&D Systems, biotinylated goat anti-FGF21 pAb BAF2539) for 1-2 hr at room temperature. After washing with Washing buffer, the plate was incubated with High Sensitivity Streptavidin-HRP (PIERCE Cat. No. 21130) diluted 1:1,000 in assay buffer. After washing with the Washing buffer, the binding of anti-FGF21 to recombinant FGF21 was assessed by adding substrate 3, 3′, 5, 5′ tetramethyl benzidine (TMBE 1000, Moss; Pasadena, Md.). The mean absorbance values from duplicate wells were plotted as a function of antibody concentration and the data were fitted to a three parameter equation to calculate the half maximal effective concentration (EC₅₀) values for each antibody using Prism 6 (GraphPad Software, Inc., La Jolla, Calif.) (Table 2).

[11] = target: T1, FAP-cleaved human FGF21; experiment: sandwich ELISA; coated primary Ab, FGF21 titrated, detector biotinylated goat anti-FGF21 pAb BAF2539
Description: as §3

[12] = target: T2, intact human FGF21; experiment: as above
Description: as §3

[13] = target: T1, FAP-cleaved human FGF21; experiment: sandwich ELISA; capture mAb4, detection mAb11
Description: as §1

[14] = target: T2, intact human FGF21; experiment: sandwich ELISA; capture mAb4, detection mAb11
Description: as §1

[15] = target: T1, FAP-cleaved human FGF21; experiment: sandwich ELISA; capture mAb4, detection mAb16
Description: as §1

[16] = target: T2, intact human FGF21; experiment: sandwich ELISA; capture mAb4, detection mAb16
Description: as §1

[17] = target: T2, intact human FGF21; experiment: sandwich ELISA, intact human FGF21; capture mAb4, detector mAb11
Description: as §2

[18] = target: T1, FAP-cleaved human FGF21; experiment: sandwich ELISA; capture mAb4, detection mAb15
Description: as §1

[19] = target: T2, intact human FGF21; experiment: sandwich ELISA; capture mAb4, detection mAb15
Description: as §1

[20] = target: T2, intact human FGF21; experiment: sandwich ELISA, intact human FGF21; capture mAb4, detector mAb1
Description: as §2

[21] = target: T2, intact human FGF21; experiment: sandwich ELISA, intact human FGF21; capture mAb4, detector mAb10
Description: as §2

[22] = target: T2, intact human FGF21; experiment: sandwich ELISA, intact human FGF21; capture mAb11, detector mAb4
[23] = target: T1, FAP-cleaved human FGF21; experiment: sandwich ELISA; capture mAb11, detection mAb4
Description: as §1

[24] = target: T2, intact human FGF21; experiment: sandwich ELISA; capture mAb11, detection mAb4
Description: as §1

[25] = target: T1, FAP-cleaved human FGF21; experiment: sandwich ELISA; capture mAb11, detection mAb15
Description: as §1

[26] = target: T2, intact human FGF21; experiment: sandwich ELISA; capture mAb11, detection mAb15
Description: as §1

[27] = target: T2, intact human FGF21; experiment: sandwich ELISA, intact human FGF21; capture mAb11, detector mAb9
[28] = target: T1, FAP-cleaved human FGF21; experiment: sandwich ELISA; capture mAb15, detection mAb11
Description: as §1

[29] = target: T2, intact human FGF21; experiment: sandwich ELISA; capture mAb15, detection mAb11
Description: as §1

[30] = target: T1, FAP-cleaved human FGF21; experiment: sandwich ELISA; capture mAb15, detection mAb4
Description: as §1

[31] = target: T2, intact human FGF21; experiment: sandwich ELISA; capture mAb15, detection mAb4
Description: as §1

B1: mAb9 (antibody, V domains shown)
VH: EVQLQQSGPELVKPGASVKIPCKASGYTFTDYYMGWVKQSHGKSLEWIGDINPNNGVTINNQNFKGKATLTVDKSSSTAYMELRSLASEDTAVYYCTRGYGGALDYWGQGTSVTVSS
VL: DIQMTQSPASLSASVGETVIITCRASENIYSYLAWYQQKQGKSPQLLVYNIRTLAEGVPSRFSGSGSGTQFSLKINSLQPEDFGSYYCQHHYDSPWTFGGGTKLEIKR
notes: also called BIO-9 (biotinylated); antibody 9
- EC50 [1]: 6.23 ng/mL
- EC50 [2]: 1.45 ng/mL
- EC50 [3]: 0.156 ng/mL
- EC50 [4]: 0.166 ng/mL
- EC50 [5]: 0.156 ng/mL
- EC50 [6]: 0.161 ng/mL
- EC50 [7]: 0.249 ng/mL
- EC50 [8]: 0.363 ng/mL
- EC50 [9]: 0.431 ng/mL
- EC50 ratio (Cleaved/Intact) [10]: 1.6
- EC50 [11]: 1.39 ng/mL
- EC50 [12]: 0.855 ng/mL

B2: mAb4 (antibody, V domains shown)
VH: EVKLVESGGDLVKPGGSLKLSCAASGFTFSSYGMSWVRQTPDKRLEWVATISTGGGYTYYPDSVKGRFTISRDNAKNTLYLQMSSLRSEDTAMYYCARHDLVDWYFDVWGTGTTVTVSS
VL: QIVLTQSPAIMSAPLGERVTMTCTASSSVSSSYLHWYQQKPGSSPKVWIYRTTNLASGVPTRFSGSGSGTSYSLTISSMEAEDAATYYCHQYHRSPPTWTFGGGTKLEIKR
notes: Biotinylated when used as detector, coupled to beads in the Simoa assays; also called BIO-4 (biotinylated); antibody 4
- EC50 [13]: 0.148 ng/mL
- EC50 [14]: 0.195 ng/mL
- EC50 [15]: 7.04 ng/mL
- EC50 [16]: 1.25 ng/mL
- EC50 [17]: 0.133 ng/mL
- EC50 [18]: 0.263 ng/mL
- EC50 [19]: 0.232 ng/mL
- EC50 [20]: 0.193 ng/mL
- EC50 [21]: 0.108 ng/mL
- EC50 ratio (Cleaved/Intact) [10]: 1.9
- EC50 [11]: 0.17 ng/mL
- EC50 [12]: 0.09 ng/mL

Next, values leading:

- EC50 [22]: 0.161 ng/mL
- EC50 [23]: 0.204 ng/mL
- EC50 [24]: 0.205 ng/mL
- EC50 [25]: 0.63 ng/mL
- EC50 [26]: 0.774 ng/mL
- EC50 ratio (Cleaved/Intact) [10]: 2.1
- EC50 [11]: 0.318 ng/mL
- EC50 [12]: 0.149 ng/mL
- EC50 [27]: 0.195 ng/mL
B3: mAb11 (antibody, V domains shown)
VH: QVQLQQSGAELARPGASVKLSCKASGYTFTNYGISWVKQRTGQGLEWIGEIYPRSDNTYYNEKFKGKATLTADKSSSTAYMELRSLTSEDSAVYFCTRSDYGFFDYWGQGTTLTVSS
VL: QIVLTQSPALMSASPGERVTMTCSAGSSVSYMYWYQQKPRSSPKPWIYLTSNLASGVPARFSGSGSGTSYSLTISSMEAEDAATYYCQQWSSNPRTFGGGTKLEIKR
notes: Biotinylated when used as detector; also called BIO-11 (biotinylated); antibody 11

- EC50 [28]: 1.24 ng/mL
- EC50 [29]: 1.39 ng/mL
- EC50 [30]: 0.562 ng/mL
- EC50 [31]: 0.537 ng/mL
B4: mAb15 (antibody, V domains shown)
VH: QVQLIQSGPGLVQPSQSLSITCTVSGFSLTGYAIHWVRQSPGKGLEWLGMIWKSGNTDYNAAFMSRLSITKDNSKSQVFFKMNSLQADDTAIYYCARNGYDYEFVYWGQGTLVTVSA
VL: DVLMTQTPLSLPVSLGDQASISCRSSQIIVHNNGDTYLEWYLQKPGQSPKLLIYKISNRFSGVPDRFSGSGSGTDFTLKISRVEAEDLGVYYCFQGSHVPYTFGGGTKLEIKR
notes: Biotinylated when used as detector; also called BIO-15 (biotinylated); mAb15-Biotin
